We go through one substance from patent publication US20230036481A1.

For experiment [1], the target named is tagged human CD19 recombinant protein (human) (UniProt P15391). The experiment is described as follows: flow cytometry; transduced oNK cells stained with tagged CD19 recombinant protein and fluorescent anti-Myc antibody, before enrichment. On the technique in general: A flow cytometer gives signals particle by particle.
Experiment [2] has the same target. The experiment is described as follows: flow cytometry; transduced oNK cells stained with tagged CD19 recombinant protein and fluorescent anti-Myc antibody, after sorting.
Experiment [3] has as its target CD19 on Raji-Luc cells (CD19+ B cell lymphoma cell line) (human) (UniProt P15391). The experiment is described as follows: cell-based or functional assay.

Turning to “anti-CD19 chimeric antigen receptor (CAR) expressed on oNK cells (CAR19-oNK)”, the double positive of fluorescent signal of expressed Myc tag and bound human CD19 recombinant protein (% of cells) in experiment [1] stood at 9.06%. The double positive of fluorescent signal of expressed Myc tag and bound human CD19 recombinant protein (% of cells) in experiment [2] turned out to be 82.3%. For the same substance, in experiment [3], the percentage of cytotoxicity (luciferase luminescence), E:T 0.2:1, 1 hour turned out to be 13.9%; the percentage of cytotoxicity (luciferase luminescence), E:T 0.5:1, 1 hour stood at 45.9%; the percentage of cytotoxicity (luciferase luminescence), E:T 1:1, 1 hour is 64.1%; the percentage of cytotoxicity (luciferase luminescence), E:T 2:1, 1 hour worked out at 80%. In experiment [3], the percentage of cytotoxicity (luciferase luminescence), E:T 5:1, 1 hour was 91.4%.
